From publication doi:10.1101/791277 (2019)
Where no end group is shown, it is not given here. [ ]: non-standard residue; d: D form. The star is where a group is joined. 5FAM = O=C1OC2(c3ccc(O)cc3Oc3cc(O)ccc32)c2ccc(C(=O)*)cc21; pY = N[C@@H](Cc1ccc(OP(=O)(O)O)cc1)C(=O)O

T1: p85β cSH2 (603-712) (mouse, UniProt O08908 603-712)
T1 chain: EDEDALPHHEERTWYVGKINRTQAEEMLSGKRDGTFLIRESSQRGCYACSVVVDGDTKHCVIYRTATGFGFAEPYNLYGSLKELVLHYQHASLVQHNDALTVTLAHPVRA


What was measured:
Assay in all cases: FP
[1] = target: p85α cSH2 (614-720) (human, UniProt P27986 614-720)
[2] = target: p85α nSH2 (325-430) (human, UniProt P27986 325-430)
[3] = target: p85β nSH2 (312-425) (mouse, UniProt O08908 312-425)
[4] = target: p85α nSH2 R358M (human, UniProt P27986 325-430, R358M)
[5] = target: T1, p85β cSH2 (603-712)

Sequence of p85α cSH2 (614-720) (P27986 614-720): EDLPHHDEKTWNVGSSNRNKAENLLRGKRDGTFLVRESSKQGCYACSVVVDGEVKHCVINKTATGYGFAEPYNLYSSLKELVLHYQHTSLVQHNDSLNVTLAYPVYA
Sequence of p85β nSH2 (312-425) (O08908 312-425): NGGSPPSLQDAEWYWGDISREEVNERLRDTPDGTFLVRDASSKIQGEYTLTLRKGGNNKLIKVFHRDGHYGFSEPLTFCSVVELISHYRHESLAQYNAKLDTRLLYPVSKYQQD
Sequence of p85α nSH2 (325-430) (P27986 325-430): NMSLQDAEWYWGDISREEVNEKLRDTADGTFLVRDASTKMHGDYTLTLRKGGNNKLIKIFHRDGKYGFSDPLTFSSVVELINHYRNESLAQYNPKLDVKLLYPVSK
Sequence of p85α nSH2 R358M (P27986 325-430 R358M): as the sequence (P27986 325-430) above, with R34M counted along it

Kd [1] [nM]	Kd [2] [nM]	Kd [3] [nM]	Kd [4] [nM]	Kd [5] [nM]	Binder
656	82	52	2900		5FAM-TEDQ[pY]SLMEDE [p85β pY607 peptide, [5-FAM]-TEDQ-[pY]-SLMEDE]
84000	2400	9000			5FAM-TEDQ[pY]SLVEDE [p85α pY607 peptide, [5-FAM]-TEDQ-[pY]-SLVEDE]
43				100	5FAM-SD[pY]MNMTP [CD28 peptide, [5-FAM]-SD-[pY]-MNMTP]
